Here are results for eight substances from doi:10.1101/2023.05.22.541649.

For assay [1], the target named is GFP-CENP-T^1–242–I3-01 (human) (UniProt Q96BT3). The assay is described as follows: affinity purification with mass spectrometry.
The next assay concerns the target GFP-I3-01. Kind of assay: fluorescence intensity of single particles.
In the next assay the target is GFP-I3-01 (recombinant). The assay is described as follows: fluorescence intensity of single particles.
Assay [2] deals with GFP-CENP-T^1–242–I3-01 (human) (UniProt Q96BT3). Kind of assay: fluorescence intensity of single particles.
The target of assay [3] is GFP-CENP-T^1–242^/3D-I3-01 (human) (UniProt Q96BT3). The assay is described as follows: single-molecule TIRF binding assay. The following applies: scale: NDC80^Bonsai molecules per GFP-CENP-T^1–242^/3D molecule.
The target in assay [4] is GFP-CENP-T^1–242^/3D (human) (UniProt Q96BT3). Kind of assay: single-molecule TIRF binding assay. The conditions noted are these: scale: NDC80^Bonsai complexes per GFP-CENP-T^1–242^/3D molecule.
In assay [5] the target is GFP-CENP-T^1–242^/3D-I3-01 (human) (UniProt Q96BT3). Kind of assay: fluorescence intensity of single particles.

With “MIS12 complex (from UniProt Q9H081 1-205)”, the fold more per CENP-T molecule than with monomeric GFP-CENP-T^1–242 in assay [1] was 5.4 fold.

On to GFP-I3-01, for which the stoichiometry N (GFP molecules per oligomer) with GFP-I3-01 is 51. As for “NDC80 complex (from UniProt O14777 1-642; Q8NBT2 1-197; Q9HBM1 1-224)”, in assay [1], the fold more per CENP-T molecule than with monomeric GFP-CENP-T^1–242 is 5.6 fold. With GFP-I3-01 (recombinant), the stoichiometry N (GFP molecules per oligomer) in the assay with GFP-I3-01 (recombinant) amounted to 44. In assay [2], “GFP-CENP-T^1–242–I3-01 (from UniProt Q96BT3 1-242)” returned a stoichiometry N (GFP molecules per oligomer) of 41. In the case of GFP-tagged NDC80^Bonsai complex, the stoichiometry N in assay [3] came out at 2.2; in assay [4], 0.28. The substance “KNL1 complex (from UniProt Q8NG31 1-2342)” gave a fold more per CENP-T molecule than with monomeric GFP-CENP-T^1–242 in assay [1] of 2.7 fold.

Substance “GFP-CENP-T^1–242^/3D-I3-01 (from UniProt Q96BT3 1-242)” gave a stoichiometry N (molecules per complex) in assay [5] of 66.

As a reminder, the stoichiometry N is the number of molecules, sites or subunits per partner or assembly.
